B1: IL6R-2B261/IL6R-L (antibody, human IgG1, kappa)
heavy: QVQLQESGPGLVKPSETLSLTCAVSGHSISHDHAWSWVRQPPGEGLEWIGFISYSGITNYNPSLQGRVTISRDNSKNTLYLQMNSLRAEDTAVYYCARSLARTTAMDYWGEGTLVTVSSASTKGPSVFPLAPSSKSTSGGTAALGCLVKDYFPEPVTVSWNSGALTSGVHTFPAVLQSSGLYSLSSVVTVPSSSLGTQTYICNVNHKPSNTKVDKKVEPKSCDKTHTCPPCPAPDLLGGDSVFLFPPKPKDTLMISRTPEVTCVVVDVSHEDPEVKFNWYVDGVEVHNAKTKPREEQDNSTYRVVSVLTVLHQDWLNGKEYKCKVSNKALPAPIEKTISKAKGQPREPQVYTLPPSRDELTKNQVSLTCLVKGFYPSDIAVEWESNGQPENNYKTTPPVLDSDGSFFLYSKLTVDKSRWQQGNVFSCSVMHEALHNHYTQESLSLSP
light: not shown
B2: IL6R-BP129/IL6R-L (antibody, human IgG1, kappa)
heavy: QVQLQESGPGLVKPSETLSLTCAVSGHSISHDHAWSWVRQPPGEGLEWIGFISYSGITNYNPSLQGRVTISRDNSKNTLYLQMNSLRAEDTAVYYCARSLARTTAMDYWGEGTLVTVSSASTKGPSVFPLAPSSKSTSGGTAALGCLVKDYFPEPVTVSWNSGALTSGVHTFPAVLQSSGLYSLSSVVTVPSSSLGTQTYICNVNHKPSNTKVDKKVEPKSCDKTHTCPPCPAPDLLGGDSVFLFPPKPKDTLMISRTPEVTCVVVDVSHEDPEVKFNWYVDGVEVHNAKTKPREEQDNSTYRVVSVLTVLHQDWLNGKEYKCKVSNKALPKPIEKTISKAKGQPREPQVYTLPPSRDELTKNQVSLTCLVKGFYPSDIAVEWESNGQPENNYKTTPPVLDSDGSFFLYSKLTVDKSRWQQGNVFSCSVMHEALHNHYTQESLSLSP
light: not shown
B3: IL6R-BP082/IL6R-L (antibody, human IgG1, kappa)
heavy: QVQLQESGPGLVKPSETLSLTCAVSGHSISHDHAWSWVRQPPGEGLEWIGFISYSGITNYNPSLQGRVTISRDNSKNTLYLQMNSLRAEDTAVYYCARSLARTTAMDYWGEGTLVTVSSASTKGPSVFPLAPSSKSTSGGTAALGCLVKDYFPEPVTVSWNSGALTSGVHTFPAVLQSSGLYSLSSVVTVPSSSLGTQTYICNVNHKPSNTKVDKKVEPKSCDKTHTCPPCPAPDLLGGDSVFLFPPKPKDTLMISRTPEVTCVVVDVSHEDPEVKFNWYVDGVEVHNAKTKPREEQYNSTYRVVSVLTVLHQDWLNGKEYKCKVSNKALPKPIEKTISKAKGQPREPQVYTLPPSRDELTKNQVSLTCLVKGFYPSDIAVEWESNGQPENNYKTTPPVLDSDGSFFLYSKLTVDKSRWQQGNVFSCSVMHEALHNHYTQESLSLSP
light: not shown
B4: IL6R-BP428/IL6R-L (antibody, human IgG1, kappa)
heavy: QVQLQESGPGLVKPSETLSLTCAVSGHSISHDHAWSWVRQPPGEGLEWIGFISYSGITNYNPSLQGRVTISRDNSKNTLYLQMNSLRAEDTAVYYCARSLARTTAMDYWGEGTLVTVSSASTKGPSVFPLAPSSKSTSGGTAALGCLVKDYFPEPVTVSWNSGALTSGVHTFPAVLQSSGLYSLSSVVTVPSSSLGTQTYICNVNHKPSNTKVDKKVEPKSCDKTHTCPPCPAPDLLGDDSVFLFPPKPKDTLMISRTPEVTCVVVDVGEEDGEVKFNWYVDGVEVHNAKTKPREEQYNSTYRVVSVLTVLHQDWLNGKEYKCKVSNKALPRPIEKTISKAKGQPREPQVYTLPPSRDELTKNQVSLTCLVKGFYPSDIAVEWESNGQPENNYKTTPPVLDSDGSFFLYSKLTVDKSRWQQGNVFSCSVMHEALHNHYTQESLSLSP
light: not shown
notes: Alterations in EU numbering, introduced into IL6R-B3
B5: IL6R-BP253/IL6R-L (antibody, human IgG1, kappa)
heavy: QVQLQESGPGLVKPSETLSLTCAVSGHSISHDHAWSWVRQPPGEGLEWIGFISYSGITNYNPSLQGRVTISRDNSKNTLYLQMNSLRAEDTAVYYCARSLARTTAMDYWGEGTLVTVSSASTKGPSVFPLAPSSKSTSGGTAALGCLVKDYFPEPVTVSWNSGALTSGVHTFPAVLQSSGLYSLSSVVTVPSSSLGTQTYICNVNHKPSNTKVDKKVEPKSCDKTHTCPPCPAPELLGGPSVFLFPPKPKDTLMISRTPEVTCVVVDVEHEDPEVKFNWYVDGVEVHNAKTKPREEQYNSTYRVVSVLTVLHQDWLNGKEYKCKVSNKAFPAPIEKTISKAKGQPREPQVYTLPPSRDELTKNQVSLTCLVKGFYPSDIAVEWESNGQPENNYKTTPPVLDSDGSFFLYSKLTVDKSRWQQGNVFSCSVMHEALHNHYTQESLSLSP
light: not shown
notes: S267E/L328F (EU numbering) in IL6R-B3; comparative control
B6: IL6R-BP085/IL6R-L (antibody, human IgG1, kappa)
heavy: QVQLQESGPGLVKPSETLSLTCAVSGHSISHDHAWSWVRQPPGEGLEWIGFISYSGITNYNPSLQGRVTISRDNSKNTLYLQMNSLRAEDTAVYYCARSLARTTAMDYWGEGTLVTVSSASTKGPSVFPLAPSSKSTSGGTAALGCLVKDYFPEPVTVSWNSGALTSGVHTFPAVLQSSGLYSLSSVVTVPSSSLGTQTYICNVNHKPSNTKVDKKVEPKSCDKTHTCPPCPAPELLGDDSVFLFPPKPKDTLMISRTPEVTCVVVDVSHEDPEVKFNWYVDGVEVHNAKTKPREEQYNSTYRVVSVLTVLHQDWLNGKEYKCKVSNKALPKPIEKTISKAKGQPREPQVYTLPPSRDELTKNQVSLTCLVKGFYPSDIAVEWESNGQPENNYKTTPPVLDSDGSFFLYSKLTVDKSRWQQGNVFSCSVMHEALHNHYTQESLSLSP
light: not shown
B7: IL6R-BP181/IL6R-L (antibody, human IgG1, kappa)
heavy: QVQLQESGPGLVKPSETLSLTCAVSGHSISHDHAWSWVRQPPGEGLEWIGFISYSGITNYNPSLQGRVTISRDNSKNTLYLQMNSLRAEDTAVYYCARSLARTTAMDYWGEGTLVTVSSASTKGPSVFPLAPSSKSTSGGTAALGCLVKDYFPEPVTVSWNSGALTSGVHTFPAVLQSSGLYSLSSVVTVPSSSLGTQTYICNVNHKPSNTKVDKKVEPKSCDKTHTCPPCPAPDLLGGDSVFLFPPKPKDTLMISRTPEVTCVVVDVSHEDGEVKFNWYVDGVEVHNAKTKPREEQYNSTYRVVSVLTVLHQDWLNGKEYKCKVSNAALPKPIEKTISKAKGQPREPQVYTLPPSRDELTKNQVSLTCLVKGFYPSDIAVEWESNGQPENNYKTTPPVLDSDGSFFLYSKLTVDKSRWQQGNVFSCSVMHEALHNHYTQESLSLSP
light: not shown
B8: IL6R-BP191/IL6R-L (antibody, human IgG1, kappa)
heavy: QVQLQESGPGLVKPSETLSLTCAVSGHSISHDHAWSWVRQPPGEGLEWIGFISYSGITNYNPSLQGRVTISRDNSKNTLYLQMNSLRAEDTAVYYCARSLARTTAMDYWGEGTLVTVSSASTKGPSVFPLAPSSKSTSGGTAALGCLVKDYFPEPVTVSWNSGALTSGVHTFPAVLQSSGLYSLSSVVTVPSSSLGTQTYICNVNHKPSNTKVDKKVEPKSCDKTHTCPPCPAPDLLGGDSVFLFPPKPKDTLMISRTPEVTCVVVDVSDEDGEVKFNWYVDGVEVHNAKTKPREEQYNSTYRVVSVLTVLHQDWLNGKEYKCKVSNAALPKPIEKTISKAKGQPREPQVYTLPPSRDELTKNQVSLTCLVKGFYPSDIAVEWESNGQPENNYKTTPPVLDSDGSFFLYSKLTVDKSRWQQGNVFSCSVMHEALHNHYTQESLSLSP
light: not shown
B9: IL6R-BP086/IL6R-L (antibody, human IgG1, kappa)
heavy: QVQLQESGPGLVKPSETLSLTCAVSGHSISHDHAWSWVRQPPGEGLEWIGFISYSGITNYNPSLQGRVTISRDNSKNTLYLQMNSLRAEDTAVYYCARSLARTTAMDYWGEGTLVTVSSASTKGPSVFPLAPSSKSTSGGTAALGCLVKDYFPEPVTVSWNSGALTSGVHTFPAVLQSSGLYSLSSVVTVPSSSLGTQTYICNVNHKPSNTKVDKKVEPKSCDKTHTCPPCPAPELLGGDSVFLFPPKPKDTLMISRTPEVTCVVVDVSHEDPEVKFNWYVDGVEVHNAKTKPREEQYNSTYRVVSVLTVLHQDWLNGKEYKCKVSNAALPKPIEKTISKAKGQPREPQVYTLPPSRDELTKNQVSLTCLVKGFYPSDIAVEWESNGQPENNYKTTPPVLDSDGSFFLYSKLTVDKSRWQQGNVFSCSVMHEALHNHYTQESLSLSP
light: not shown
B10: IL6R-BP264/IL6R-L (antibody, human IgG1, kappa)
heavy: QVQLQESGPGLVKPSETLSLTCAVSGHSISHDHAWSWVRQPPGEGLEWIGFISYSGITNYNPSLQGRVTISRDNSKNTLYLQMNSLRAEDTAVYYCARSLARTTAMDYWGEGTLVTVSSASTKGPSVFPLAPSSKSTSGGTAALGCLVKDYFPEPVTVSWNSGALTSGVHTFPAVLQSSGLYSLSSVVTVPSSSLGTQTYICNVNHKPSNTKVDKKVEPKSCDKTHTCPPCPAPDLLGDDSVFLFPPKPKDTLMISRTPEVTCVVVDVSEEDGEVKFNWYVDGVEVHNAKTKPREEQDNSTYRVVSVLTVLHQDWLNGKEYKCKVSNKALPRPIEKTISKAKGQPREPQVYTLPPSRDELTKNQVSLTCLVKGFYPSDIAVEWESNGQPENNYKTTPPVLDSDGSFFLYSKLTVDKSRWQQGNVFSCSVMHEALHNHYTQESLSLSP
light: not shown
notes: E233D/G237D/P238D/H268E/P271G/Y296D/A330R (EU numbering) in IL6R-B3
B11: IL6R-BP083/IL6R-L (antibody, human IgG1, kappa)
heavy: QVQLQESGPGLVKPSETLSLTCAVSGHSISHDHAWSWVRQPPGEGLEWIGFISYSGITNYNPSLQGRVTISRDNSKNTLYLQMNSLRAEDTAVYYCARSLARTTAMDYWGEGTLVTVSSASTKGPSVFPLAPSSKSTSGGTAALGCLVKDYFPEPVTVSWNSGALTSGVHTFPAVLQSSGLYSLSSVVTVPSSSLGTQTYICNVNHKPSNTKVDKKVEPKSCDKTHTCPPCPAPELLGGDSVFLFPPKPKDTLMISRTPEVTCVVVDVSHEDPEVKFNWYVDGVEVHNAKTKPREEQDNSTYRVVSVLTVLHQDWLNGKEYKCKVSNKALPKPIEKTISKAKGQPREPQVYTLPPSRDELTKNQVSLTCLVKGFYPSDIAVEWESNGQPENNYKTTPPVLDSDGSFFLYSKLTVDKSRWQQGNVFSCSVMHEALHNHYTQESLSLSP
light: not shown

Assays:
[1] = biological target: T1, FcγRIIb extracellular domain with C-terminal His tag (human, UniProt P31994 43-217); test: SPR, captured antibody, FcgR analyte
T1 construct: extracellular domain; also called FcgRIIb
T1 sequence (looked up): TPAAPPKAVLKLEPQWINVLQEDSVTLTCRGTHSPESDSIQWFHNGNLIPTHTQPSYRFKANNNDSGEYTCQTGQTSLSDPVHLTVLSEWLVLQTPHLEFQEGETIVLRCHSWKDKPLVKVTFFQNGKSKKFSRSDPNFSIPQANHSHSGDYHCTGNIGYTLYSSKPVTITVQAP
Method: (§1) Relative binding activities were calculated for the results of analyzing interactions with the respective FcγRs according to the following method.

[2] = biological target: T2, FcγRIa extracellular domain with C-terminal His tag (human, UniProt P12314 16-292); test: SPR, captured antibody, FcgR analyte
T2 construct: also called FcgRIa
Method: as §1

FcγRIIa type R = biological target: T3, FcγRIIa type R (human, UniProt P12318 34-217); test: SPR (Biacore), captured antibody, soluble FcγR
T3 chain: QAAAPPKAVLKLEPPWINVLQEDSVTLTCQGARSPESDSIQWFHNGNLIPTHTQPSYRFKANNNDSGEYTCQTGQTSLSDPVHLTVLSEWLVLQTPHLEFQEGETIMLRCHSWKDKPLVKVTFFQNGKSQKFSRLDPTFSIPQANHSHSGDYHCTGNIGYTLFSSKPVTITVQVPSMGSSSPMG

T2 sequence (P12314 16-292): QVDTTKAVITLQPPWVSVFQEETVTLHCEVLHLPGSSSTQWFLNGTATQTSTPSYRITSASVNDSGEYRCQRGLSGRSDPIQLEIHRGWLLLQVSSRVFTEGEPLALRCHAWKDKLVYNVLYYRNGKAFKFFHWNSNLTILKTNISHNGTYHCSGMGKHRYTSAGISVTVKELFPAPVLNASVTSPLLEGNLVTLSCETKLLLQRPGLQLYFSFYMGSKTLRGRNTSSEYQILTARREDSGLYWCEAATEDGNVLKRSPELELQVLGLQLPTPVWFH

| Binder | relative binding activity [1] | relative binding activity [2] | Kd (FcγRIIa type R) [nM] |
| --- | --- | --- | --- |
| B1 | 115 relative (IL6R-BF648/IL6R-L = 100) | 100 relative (IL6R-BF648/IL6R-L = 100) |  |
| B2 | 138 relative (IL6R-BF648/IL6R-L = 100) | 68 relative (IL6R-BF648/IL6R-L = 100) |  |
| B3 | 136 relative (IL6R-BF648/IL6R-L = 100) | 74 relative (IL6R-BF648/IL6R-L = 100) |  |
| B4 |  |  | 390 |
| B5 |  |  | 2.1 |
| B6 | 152 relative (IL6R-BF648/IL6R-L = 100) | 19 relative (IL6R-BF648/IL6R-L = 100) |  |
| B7 |  | 108 relative (IL6R-BF648/IL6R-L = 100) |  |
| B8 |  | 125 relative (IL6R-BF648/IL6R-L = 100) |  |
| B9 | 137 relative (IL6R-BF648/IL6R-L = 100) | 72 relative (IL6R-BF648/IL6R-L = 100) |  |
| B10 |  |  | 350 |
| B11 | 122 relative (IL6R-BF648/IL6R-L = 100) | 50 relative (IL6R-BF648/IL6R-L = 100) |  |

Source: US20210261648A1 (published 2021)
